Experimental data published in PMC6366944 (Cell, 2018).

T1: EBOV VP30 residues 89-288 (in vitro pull-down) (Zaire ebolavirus, UniProt Q05323 89-288)
T1 sequence: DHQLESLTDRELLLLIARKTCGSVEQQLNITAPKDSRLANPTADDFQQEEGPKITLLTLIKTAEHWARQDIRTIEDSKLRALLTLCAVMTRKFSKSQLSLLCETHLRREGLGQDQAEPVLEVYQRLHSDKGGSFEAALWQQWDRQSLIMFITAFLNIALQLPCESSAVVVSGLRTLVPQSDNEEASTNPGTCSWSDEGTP

T2: EBOV VP30 C-terminal domain, residues 130-272 (Zaire ebolavirus, UniProt Q05323 130-272)
T2 sequence: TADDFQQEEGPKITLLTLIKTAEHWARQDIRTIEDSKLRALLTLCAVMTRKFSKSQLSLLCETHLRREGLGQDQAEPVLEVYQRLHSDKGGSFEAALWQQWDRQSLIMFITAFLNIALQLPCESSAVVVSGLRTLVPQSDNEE

B1: MBP fusion of RBBP6 residues 549-573 (peptide)
chain: SLPATPVFVPVPPPPLYPPPPHTLP
B2: RBBP6 peptide, residues 549-571 (peptide)
peptide: SLPATPVFVPVPPPPLYPPPPHT
B3: unlabeled NP peptide (peptide)
peptide: RTPTVAPPAPVYRDHS

Legend:
[1] = target: T1, EBOV VP30 residues 89-288 (in vitro …); test: pull-down
[2] = target: T2, EBOV VP30 C-terminal domain, residues …; test: fluorescence polarisation
[3] = target: T2, EBOV VP30 C-terminal domain, residues …; test: ITC

Binder	binding result [1]	Kd [2] [µM]	Kd [3] [µM]	stoichiometry N [3]
B1	binds			
B2		18.1 ± 0.41	0.75 ± 0.095	1
B3		89.2 ± 2.26		
